# From patent US20220185894A1 (F STAR THERAPEUTICS, published 2022)
# Numbering of substitutions follows the chain as printed.
# T1: mouse LAG-3 expressed on cells (mouse, UniProt Q61790 24-521)
# T1 construct: also called mLAG-3; murine LAG-3 HEK
# T1 sequence: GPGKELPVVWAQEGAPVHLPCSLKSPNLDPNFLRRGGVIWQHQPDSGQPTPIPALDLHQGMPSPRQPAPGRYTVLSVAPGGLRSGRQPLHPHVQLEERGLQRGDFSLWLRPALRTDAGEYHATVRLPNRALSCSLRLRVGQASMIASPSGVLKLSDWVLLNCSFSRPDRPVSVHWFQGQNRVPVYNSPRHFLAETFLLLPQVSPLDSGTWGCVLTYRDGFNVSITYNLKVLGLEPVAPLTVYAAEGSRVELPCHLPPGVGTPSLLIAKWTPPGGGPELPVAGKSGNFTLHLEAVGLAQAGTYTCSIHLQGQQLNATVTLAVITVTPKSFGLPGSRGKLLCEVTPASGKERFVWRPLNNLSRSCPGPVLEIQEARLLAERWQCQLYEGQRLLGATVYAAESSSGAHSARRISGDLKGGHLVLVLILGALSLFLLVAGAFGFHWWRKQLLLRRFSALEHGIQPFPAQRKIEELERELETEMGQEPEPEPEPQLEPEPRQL
# T2: human FcγRIIb/c (R&D Systems, 1875-CD) (human, UniProt P31994 46-217)
# T2 construct: Bought recombinant protein
# T2 sequence (looked up): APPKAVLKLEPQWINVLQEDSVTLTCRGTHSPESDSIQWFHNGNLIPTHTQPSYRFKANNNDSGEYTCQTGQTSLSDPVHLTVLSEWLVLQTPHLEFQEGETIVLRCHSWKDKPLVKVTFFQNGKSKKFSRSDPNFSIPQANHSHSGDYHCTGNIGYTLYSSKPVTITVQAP
# T3: human FcγRIIa (R&D Systems, 1330-CD) (human, UniProt P12318 36-218, limits assumed)
# T3 construct: Bought recombinant protein
# T3 sequence (looked up): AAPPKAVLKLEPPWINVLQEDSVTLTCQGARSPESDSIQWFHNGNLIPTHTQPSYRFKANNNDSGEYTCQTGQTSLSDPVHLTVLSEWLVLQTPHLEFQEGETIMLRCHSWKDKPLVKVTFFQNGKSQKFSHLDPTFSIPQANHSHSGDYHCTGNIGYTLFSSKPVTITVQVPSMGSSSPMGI
# B1: anti-mouse LAG-3/FITC mAb2 FS18-7-108-29/4420 comprising LALA mutation (bispecific antibody, human IgG1, kappa, L234A L235A)
# heavy: EVKLDETGGGLVQPGRPMKLSCVASGFTFSDYWMNWVRQSPEKGLEWVAQIRNKPYNYETYYSDSVKGRFTISRDDSKSSVYLQMNNLRVEDMGIYYCTGSYYGMDYWGQGTSVTVSSASTKGPSVFPLAPSSKSTSGGTAALGCLVKDYFPEPVTVSWNSGALTSGVHTFPAVLQSSGLYSLSSVVTVPSSSLGTQTYICNVNHKPSNTKVDKKVEPKSCDKTHTCPPCPAPEAAGGPSVFLFPPKPKDTLMISRTPEVTCVVVDVSHEDPEVKFNWYVDGVEVHNAKTKPREEQYNSTYRVVSVLTVLHQDWLNGKEYKCKVSNKALPAPIEKTISKAKGQPREPQVYTLPPSWDEPWGEDVSLTCLVKGFYPSDIVVEWESNGQPENNYKTTPPVLDSDGSFFLYSKLTVPFERWMWPDEFSCSVMHEALHNHYTQKSLSLSPG
# light: DVVMTQTPLSLPVSLGDQASISCRSSQSLVHSNGNTYLRWYLQKPGQSPKVLIYKVSNRFSGVPDRFSGSGSGTDFTLKISRVEAEDLGVYFCSQSTHVPWTFGGGTKLEIKRTVAAPSVFIFPPSDEQLKSGTASVVCLLNNFYPREAKVQWKVDNALQSGNSQESVTEQDSKDSTYSLSSTLTLSKADYEKHKVYACEVTHQGLSSPVTKSFNRGEC
# notes: also called FS18-29/4420
# B2: anti-FITC mAb 4420 without LALA mutation (wild-type IgG1) (antibody)
# heavy: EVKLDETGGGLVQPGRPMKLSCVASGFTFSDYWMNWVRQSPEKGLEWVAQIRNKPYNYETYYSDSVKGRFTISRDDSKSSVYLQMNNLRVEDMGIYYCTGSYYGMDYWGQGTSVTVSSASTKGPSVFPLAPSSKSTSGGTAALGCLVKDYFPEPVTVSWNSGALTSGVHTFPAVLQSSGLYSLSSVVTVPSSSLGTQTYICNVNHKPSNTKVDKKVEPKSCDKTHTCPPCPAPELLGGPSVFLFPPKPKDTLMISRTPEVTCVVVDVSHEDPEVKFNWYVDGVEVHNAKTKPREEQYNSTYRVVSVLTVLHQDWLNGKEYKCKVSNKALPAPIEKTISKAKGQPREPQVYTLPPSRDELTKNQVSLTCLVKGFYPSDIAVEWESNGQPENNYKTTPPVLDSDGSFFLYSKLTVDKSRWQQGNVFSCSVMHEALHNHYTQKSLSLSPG
# light: B1 light
# notes: also called mock mAb IgG1; 4420 mAb IgG1
# B3: anti-FITC mAb 4420 comprising LALA mutation (antibody, human IgG1, kappa, L234A L235A)
# heavy: not shown
# light: B1 light
# notes: also called mock mAb LALA; 4420 LALA
# B4: anti-mouse LAG-3/FITC mAb2 FS18-7-108-35/4420 comprising LALA mutation (bispecific antibody, human IgG1, kappa, L234A L235A)
# heavy: B1 heavy with V379S
# light: B1 light
# notes: also called FS18-35/4420
# How the values were obtained:
# [1] = biological target: T1, mouse LAG-3 expressed on cells; experiment: flow cytometry on HEK cells expressing murine LAG-3
# Procedure: The affinity of the mAb² (all containing the LALA mutations) binding to cell expressed murine LAG-3 or murine PD-L1 was determined using flow cytometry. HEK cells expressing murine LAG-3 or murine PD-L1 grown in DMEM (Life Technologies, 61965-026) containing 10% FBS (Life Technologies, 10270-1-6), 100 μg/ml Hygromycin B (Melford Laboratories Ltd, Z2475), 15 μg/ml Blasticidin (Melford Laboratories Ltd, B1105) and 1 μg/ml Doxycyclin (Sigma, D9891) were detached from tissue culture flasks using cell dissociation buffer (Life Technologies, 13151-014) and seeded in V-bottom 96-well plates (Costar, 3897) at 2×10⁵ cells/well. The plates were centrifuged at 1500 rpm for 3 min at 4° C. to pellet the cells. A dilution series of the mAb² (or control mAb) were incubated with the cells in a 60 μl volume for 1 h at 4° C. The plates were washed and secondary antibody (Anti-human Fc-488, Jackson ImmunoResearch, 109-546-098 for mAb² or Anti-Rat IgG (H+L), Alexa Fluor 488, ThermoFisher, A-11006 for anti-LAG-3 control, C9B7W) was diluted 1:1000 in PBS and 50 μl was added to the cells for 30 min at 4° C. (plates were kept in the dark). The plates were washed then cells were resuspended in 50 μl FACS Cell Fix (BD Bioscience, 340181) for 15 minutes, then washed and resuspended in 100 μl PBS containing 1 μg/ml DAPI (Biotium, 40043). The plates were read using Canto II flow cytometer (BD Bioscience). Dead cells were excluded and the fluorescence in the FITC channel (488 nm/530/30) was measured. The data was fit using log (agonist) vs response in GraphPad Prism Software. The plates were read on a BD FACSCanto II cytometer (BD Biosciences) and the data analysed using FlowJo.
# [2] = biological target: T4, human FcγRIIIa (R&D Systems, 4325-FC) (human, UniProt P08637 17-208); experiment: SPR, Biacore T200; FcγR immobilised, 200 µg/ml injected
# T4 construct: Bought recombinant protein
# Procedure: (§1) The introduction of the LALA mutation in the CH2 domain of human IgG1 is known to reduce Fc γ receptor binding (Bruhns, P., et al. (2009); and Xu, D. et al. (2000)). […] The human FcγR binding assay was performed on a Biacore T200 instrument (GE Healthcare) using the Fcabs in the mock mAb² format. […] For each immobilized chip a flow cell was left blank for background subtraction. FcγR were immobilized using a concentration of 5 μg/ml in sodium acetate pH5 (ForteBio, 18-1069) and injected at a flow rate of 10 μl/min in 15 second cycles until the required immobilization level was reached.
# (§2) The flow cells were regenerated by injecting 10 mM sodium hydroxide (VWR, 28244.262) at a flow rate of 100 μl/min for 30 seconds. The data analysis was performed with BiaEvaluation software version 3.2 RC1 by double referencing against the blank flow cell (without immobilized FcγR) and subtracting a buffer cycle from test mAb².
# [3] = biological target: T5, human FcγRI (R&D Systems, 1257-FC) (human, UniProt P12314 16-288); experiment: as above
# T5 construct: Bought recombinant protein
# Procedure: as §1, §2
# [4] = biological target: T2, human FcγRIIb/c (R&D Systems, 1875-CD); experiment: SPR, Biacore T200; FcγR immobilised, 500 µg/ml injected
# Procedure: as §1, §2
# [5] = biological target: T3, human FcγRIIa (R&D Systems, 1330-CD); experiment: as above
# Procedure: as §1, §2
# T4 sequence (P08637 17-208 limits assumed): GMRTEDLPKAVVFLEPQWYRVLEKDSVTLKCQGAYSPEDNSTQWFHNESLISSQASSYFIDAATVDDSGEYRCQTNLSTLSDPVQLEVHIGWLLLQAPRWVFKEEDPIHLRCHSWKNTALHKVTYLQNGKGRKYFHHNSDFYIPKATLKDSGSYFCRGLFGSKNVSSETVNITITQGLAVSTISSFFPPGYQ
# T5 sequence (P12314 16-288 limits assumed): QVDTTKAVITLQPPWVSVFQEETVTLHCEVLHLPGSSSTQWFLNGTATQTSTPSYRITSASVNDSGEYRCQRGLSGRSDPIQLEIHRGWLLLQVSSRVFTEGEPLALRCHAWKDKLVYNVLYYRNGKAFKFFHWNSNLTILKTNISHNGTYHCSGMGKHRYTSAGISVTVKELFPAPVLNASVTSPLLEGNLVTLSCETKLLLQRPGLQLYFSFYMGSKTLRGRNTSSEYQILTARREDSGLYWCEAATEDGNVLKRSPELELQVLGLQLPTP
EC50 [1],binding response at end of association (RU) [2],binding response at end of association (RU) [3],binding response at end of association (RU) [4],binding response at end of association (RU) [5],Binder
2.29 nM,–,–,–,–,B1
–,44 RU,26 RU,17.7 RU,13 RU,B2
–,8 RU,2 RU,-9.6 RU,-12.7 RU,B3
2.38 nM,–,–,–,–,B4
